We go through 3 substances from publication PMC10480278.

For data set [1], the target named is Asp186 (UniProt position 186, DGFRFDAAKHM). In words: kinetics. The following applies: 70 °C; mixture of citrate, phosphate and glycine buffers (100 mM each); Enzyme turning over starch and maltose (activity assay); 0.5 U/mL purified enzyme.
Data set [2] addresses Glu216 (UniProt position 216, GIFLAEIWAEA). Description: kinetics. Particulars: 70 °C; mixture of citrate, phosphate and glycine buffers (100 mM each); Enzyme turning over starch and maltose (activity assay); 0.5 U/mL purified enzyme.

Several values for one entry are separate records, joined by “and”; a condition that tells them apart may be missing. Equal values may be shown once.

The pKa is the pH at which an ionisable group is half protonated. On to “4-alpha-glucanotransferase (TmGTase) W131G (Thermotoga maritima; W131G)”, for which the pKa in data set [1] is 4.7 ± 0.1 and 4.5 ± 0.09; in data set [2], 8.9 ± 0.1.
Regarding “4-alpha-glucanotransferase (TmGTase) truncated loop variant (Thermotoga maritima; del120-124;del128-131)”, the results for the pKa in data set [1] and in data set [2] were 4.6 ± 0.1 and 8.9 ± 0.1, respectively.
Take “4-alpha-glucanotransferase (TmGTase), wild type (Thermotoga maritima)”: the figures for the pKa in data set [1] and in data set [2] were 4.4 ± 0.1 and 8.9 ± 0.1, respectively.
